Results reported in paper PMC4038756 (Theranostics, 2014).
Values belong to the compound of their own block, whether it stands above or below them.

How the values were obtained:
purified αvβ6 = purified αvβ6 (Homo sapiens, UniProt P06756+P18564); assay: Binding assay on purified integrins; details: purified αvβ6, up to 1 µM
[1] = molecular target: αvβ6 integrin-positive H2009 human NSCLC cells (Homo sapiens, UniProt P06756+P18564); assay: Peptide competition assay: inhibition of H2009.1 peptide phage binding to cells
αvβ6 integrin-positive H2009 human NSCLC cells, sequence (P18564 22-788): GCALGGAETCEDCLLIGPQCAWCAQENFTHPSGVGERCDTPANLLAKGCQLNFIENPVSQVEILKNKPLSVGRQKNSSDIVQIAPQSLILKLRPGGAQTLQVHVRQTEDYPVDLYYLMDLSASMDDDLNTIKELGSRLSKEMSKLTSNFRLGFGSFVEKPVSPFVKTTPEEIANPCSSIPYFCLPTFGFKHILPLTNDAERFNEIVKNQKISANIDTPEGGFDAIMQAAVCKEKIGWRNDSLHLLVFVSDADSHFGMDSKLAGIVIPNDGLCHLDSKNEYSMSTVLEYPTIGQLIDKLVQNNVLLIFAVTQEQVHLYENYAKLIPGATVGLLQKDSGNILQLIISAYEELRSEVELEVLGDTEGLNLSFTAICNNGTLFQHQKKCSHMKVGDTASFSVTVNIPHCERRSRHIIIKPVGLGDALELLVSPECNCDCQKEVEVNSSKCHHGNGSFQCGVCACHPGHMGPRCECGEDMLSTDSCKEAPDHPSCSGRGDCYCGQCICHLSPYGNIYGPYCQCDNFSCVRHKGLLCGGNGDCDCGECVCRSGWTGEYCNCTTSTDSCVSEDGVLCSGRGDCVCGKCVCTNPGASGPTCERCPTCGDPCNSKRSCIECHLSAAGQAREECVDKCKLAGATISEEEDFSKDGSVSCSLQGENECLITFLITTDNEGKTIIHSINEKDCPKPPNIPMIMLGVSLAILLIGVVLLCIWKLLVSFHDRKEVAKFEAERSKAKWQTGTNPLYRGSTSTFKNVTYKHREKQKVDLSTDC
αvβ6 integrin-positive H2009 human NSCLC cells, sequence (P06756 891-1048): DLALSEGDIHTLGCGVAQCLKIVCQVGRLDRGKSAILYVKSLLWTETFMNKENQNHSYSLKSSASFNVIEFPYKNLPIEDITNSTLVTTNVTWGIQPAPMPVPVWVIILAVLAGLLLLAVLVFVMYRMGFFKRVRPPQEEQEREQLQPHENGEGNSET
αvβ6 integrin-positive H2009 human NSCLC cells, sequence (P06756 31-889): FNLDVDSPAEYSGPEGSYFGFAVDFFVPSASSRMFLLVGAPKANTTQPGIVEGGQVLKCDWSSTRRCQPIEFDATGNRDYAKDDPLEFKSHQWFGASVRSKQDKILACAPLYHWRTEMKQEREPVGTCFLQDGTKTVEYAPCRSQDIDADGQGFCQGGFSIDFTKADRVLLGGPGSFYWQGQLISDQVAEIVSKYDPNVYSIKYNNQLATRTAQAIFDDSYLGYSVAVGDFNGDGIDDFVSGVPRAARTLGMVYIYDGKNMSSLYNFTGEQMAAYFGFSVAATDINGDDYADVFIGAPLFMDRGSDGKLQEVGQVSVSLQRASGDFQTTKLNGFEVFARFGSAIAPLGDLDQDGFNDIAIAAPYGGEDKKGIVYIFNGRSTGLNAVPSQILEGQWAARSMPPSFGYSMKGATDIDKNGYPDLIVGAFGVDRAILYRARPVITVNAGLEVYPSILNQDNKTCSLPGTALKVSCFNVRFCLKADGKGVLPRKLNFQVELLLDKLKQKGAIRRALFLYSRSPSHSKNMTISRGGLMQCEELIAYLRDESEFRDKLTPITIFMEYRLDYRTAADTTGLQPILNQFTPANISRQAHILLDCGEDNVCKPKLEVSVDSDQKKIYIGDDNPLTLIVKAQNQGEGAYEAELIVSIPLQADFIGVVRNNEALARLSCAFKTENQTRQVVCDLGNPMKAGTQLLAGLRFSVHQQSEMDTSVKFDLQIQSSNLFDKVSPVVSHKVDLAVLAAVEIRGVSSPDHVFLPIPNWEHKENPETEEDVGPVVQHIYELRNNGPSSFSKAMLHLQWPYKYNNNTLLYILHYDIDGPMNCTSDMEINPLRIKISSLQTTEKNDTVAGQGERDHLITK

[2] = Small animal PET/CT imaging, H2009 tumor bearing mice; assay type: in vivo, NOD/SCID mice; details: NOD/SCID, mouse, iv, total radioactivity
[3] = test system: H2009 (αvβ6^+) xenografts; assay: as above; assay type: in vivo, NOD/SCID mice; details: H2009 tumor bearing mice, n = 3; for Tumor uptake: quantitative PET, mean ± s.d.; for Tumor/Lung: ratio of PET uptakes
[4] = Small animal PET/CT imaging, H460 tumor bearing mice; assay type: in vivo, NOD/SCID mice; details: NOD/SCID, mouse, iv, total radioactivity
H460 (αvβ6^-) xenografts = assay: as above; assay type: in vivo, NOD/SCID mice; details: H460 tumor bearing mice, quantitative PET, mean ± s.d., n = 3

purified αvβ6, sequence (P06756 31-992 limits assumed): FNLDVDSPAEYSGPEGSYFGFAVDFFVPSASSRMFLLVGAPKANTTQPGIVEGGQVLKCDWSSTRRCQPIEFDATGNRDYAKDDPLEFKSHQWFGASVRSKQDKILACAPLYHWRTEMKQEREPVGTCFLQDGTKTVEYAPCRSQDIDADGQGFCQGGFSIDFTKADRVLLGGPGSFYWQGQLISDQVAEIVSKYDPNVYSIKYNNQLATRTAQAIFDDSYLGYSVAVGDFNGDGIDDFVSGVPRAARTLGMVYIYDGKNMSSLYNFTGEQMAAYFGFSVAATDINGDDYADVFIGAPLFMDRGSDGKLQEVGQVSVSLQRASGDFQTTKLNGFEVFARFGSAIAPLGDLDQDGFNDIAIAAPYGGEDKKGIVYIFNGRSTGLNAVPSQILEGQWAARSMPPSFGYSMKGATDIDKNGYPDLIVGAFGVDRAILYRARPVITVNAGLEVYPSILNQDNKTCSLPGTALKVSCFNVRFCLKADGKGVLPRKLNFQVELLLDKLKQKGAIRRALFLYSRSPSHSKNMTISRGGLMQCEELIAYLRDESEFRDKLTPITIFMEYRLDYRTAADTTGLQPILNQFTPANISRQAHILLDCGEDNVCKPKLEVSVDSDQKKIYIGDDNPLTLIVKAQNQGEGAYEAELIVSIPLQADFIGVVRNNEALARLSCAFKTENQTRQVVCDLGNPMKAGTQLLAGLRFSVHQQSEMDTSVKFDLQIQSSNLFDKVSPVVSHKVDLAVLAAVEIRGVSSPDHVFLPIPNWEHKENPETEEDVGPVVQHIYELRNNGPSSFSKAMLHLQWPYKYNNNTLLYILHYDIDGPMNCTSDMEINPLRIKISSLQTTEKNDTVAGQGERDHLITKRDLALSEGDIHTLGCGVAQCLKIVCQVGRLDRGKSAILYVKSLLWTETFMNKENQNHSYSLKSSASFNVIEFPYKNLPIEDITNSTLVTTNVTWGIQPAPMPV
purified αvβ6, sequence (P18564 22-707 limits assumed): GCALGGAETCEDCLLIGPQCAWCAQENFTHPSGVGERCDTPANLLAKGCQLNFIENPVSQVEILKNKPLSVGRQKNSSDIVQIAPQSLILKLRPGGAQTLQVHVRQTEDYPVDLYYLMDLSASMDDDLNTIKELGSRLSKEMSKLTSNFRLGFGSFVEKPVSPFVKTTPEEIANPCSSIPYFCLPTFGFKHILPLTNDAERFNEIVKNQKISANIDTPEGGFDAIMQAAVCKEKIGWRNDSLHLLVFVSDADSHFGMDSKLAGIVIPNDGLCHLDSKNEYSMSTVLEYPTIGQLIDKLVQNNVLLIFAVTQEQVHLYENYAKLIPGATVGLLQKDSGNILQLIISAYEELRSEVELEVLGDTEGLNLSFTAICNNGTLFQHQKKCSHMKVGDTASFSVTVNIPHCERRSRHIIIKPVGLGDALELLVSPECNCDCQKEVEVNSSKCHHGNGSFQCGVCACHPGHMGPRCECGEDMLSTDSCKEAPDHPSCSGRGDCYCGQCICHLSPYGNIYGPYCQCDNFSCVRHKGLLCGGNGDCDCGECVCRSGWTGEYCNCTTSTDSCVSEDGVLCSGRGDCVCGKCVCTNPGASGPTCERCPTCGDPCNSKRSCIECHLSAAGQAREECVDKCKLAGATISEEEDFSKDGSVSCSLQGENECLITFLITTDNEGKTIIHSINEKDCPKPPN

binding to αvβ6 (purified αvβ6): no detectable binding
Structure (SMILES): N=C(N)NCCC[C@@H]1NC(=O)[C@H](CCCCN)NC(=O)[C@@H](Cc2ccc(O)cc2)NC(=O)[C@H](CC(=O)O)NC(=O)CNC1=O [cRGDyK]

Structure (SMILES): CC(C)C[C@H](NC(=O)[C@H](CCC(N)=O)NC(=O)[C@H](CCCNC(=N)N)NC(=O)[C@H](CC(C)C)NC(=O)[C@@H](NC(=O)[C@H](C)NC(=O)[C@H](CC(C)C)NC(=O)[C@H](CC(=O)O)NC(=O)CNC(=O)[C@@H](N)CCCNC(=N)N)[C@@H](C)O)C(=O)NCCOCCOCCOCCOCCOCCOCCOCCOCCOCCOCCOCCOCCC(=O)N[C@@H](CSC1CC(=O)N(CCNC(=O)CCC(C(=O)O)N2CCCN3CCN(CCCN(CC(=O)O)CC3)CC2)C1=O)C(N)=O (some centres unmarked) [H2-M10]
IC50 [1]: 4.5 nM

Structure (SMILES): CC(C)C[C@H](NC(=O)[C@H](CCC(N)=O)NC(=O)[C@H](CCCNC(=N)N)NC(=O)[C@H](CC(C)C)NC(=O)[C@@H](NC(=O)[C@H](C)NC(=O)[C@H](CC(C)C)NC(=O)[C@H](CC(=O)O)NC(=O)CNC(=O)[C@@H](N)CCCNC(=N)N)[C@@H](C)O)C(=O)NCCOCCOCCOCCOCCOCCOCCOCCOCCOCCOCCOCCOCCC(=O)N[C@@H](CSC1CC(=O)N(CCNC(=O)CCC(C(=O)O)N2CCCN3CCN(CCCN(CC(=O)O)CC3)CC2)C1=O)C(N)=O (some centres unmarked) [^64Cu-M10, metal not drawn]
tissue uptake at 1 h ([2]; heart): 1.02 ± 0.07 %ID/g | tissue uptake at 4 h ([2]; heart): 0.42 ± 0.06 %ID/g | tissue uptake at 24 h ([2]; heart): 0.16 ± 0.05 %ID/g | tissue uptake at 1 h ([2]; kidney): 6.83 ± 0.35 %ID/g | tissue uptake at 4 h ([2]; kidney): 6.23 ± 0.32 %ID/g | tissue uptake at 24 h ([2]; kidney): 3.5 ± 0.36 %ID/g | tissue uptake at 1 h ([2]; liver): 2.03 ± 0.23 %ID/g | tissue uptake at 4 h ([2]; liver): 1.53 ± 0.21 %ID/g | tissue uptake at 24 h ([2]; liver): 1.3 ± 0.1 %ID/g | tissue uptake at 1 h ([2]; lung): 0.66 ± 0.08 %ID/g | tissue uptake at 4 h ([2]; lung): 0.33 ± 0.11 %ID/g | tissue uptake at 24 h ([2]; lung): 0.15 ± 0.04 %ID/g | tissue uptake at 1 h ([2]; muscle): 0.3 ± 0.02 %ID/g | tissue uptake at 4 h ([2]; muscle): 0.12 ± 0.02 %ID/g | tissue uptake at 24 h ([2]; muscle): 0.14 ± 0.02 %ID/g | Tumor uptake ([3]; 1 h p.i.): 0.55 ± 0.17 %ID/g | Tumor/Lung ([3]; 1 h p.i.): 0.83 ± 0.18 | Tumor uptake ([3]; 4 h p.i.): 0.33 ± 0.11 %ID/g | Tumor/Lung ([3]; 4 h p.i.): 1.0 ± 0.15 | Tumor uptake ([3]; 24 h p.i.): 0.28 ± 0.11 %ID/g | Tumor/Lung ([3]; 24 h p.i.): 1.86 ± 0.11 | tissue uptake at 1 h ([4]; heart): 1.02 ± 0.17 %ID/g | tissue uptake at 4 h ([4]; heart): 0.65 ± 0.12 %ID/g | tissue uptake at 24 h ([4]; heart): 0.33 ± 0.03 %ID/g | tissue uptake at 1 h ([4]; kidney): 14 ± 2.4 %ID/g | tissue uptake at 4 h ([4]; kidney): 12.5 ± 2.33 %ID/g | tissue uptake at 24 h ([4]; kidney): 5.97 ± 1.01 %ID/g | tissue uptake at 1 h ([4]; liver): 0.93 ± 0.12 %ID/g | tissue uptake at 4 h ([4]; liver): 0.77 ± 0.06 %ID/g | tissue uptake at 24 h ([4]; liver): 0.43 ± 0.05 %ID/g | tissue uptake at 1 h ([4]; lung): 0.55 ± 0.09 %ID/g | tissue uptake at 4 h ([4]; lung): 0.34 ± 0.07 %ID/g | tissue uptake at 24 h ([4]; lung): 0.18 ± 0.02 %ID/g | tissue uptake at 1 h ([4]; muscle): 0.15 ± 0.07 %ID/g | tissue uptake at 4 h ([4]; muscle): 0.11 ± 0.04 %ID/g | tissue uptake at 24 h ([4]; muscle): 0.1 ± 0.03 %ID/g | Tumor uptake (H460 (αvβ6^-) xenografts; 1 h p.i.): 0.34 ± 0.05 %ID/g | Tumor uptake (H460 (αvβ6^-) xenografts; 4 h p.i.): 0.24 ± 0.01 %ID/g | Tumor uptake (H460 (αvβ6^-) xenografts; 24 h p.i.): 0.19 ± 0.01 %ID/g
